# Test results: US20090215689A1 (TECNOGEN S P A, published 2009)
# Assays:
# [1] = target: T1, Human recombinant FGF2 (Fibroblast growth factor-2) (human, UniProt P09038 134-288, limits assumed); assay: solid phase assay: peptide-coated wells (200 µg/well), FGF2 80 nM, detection with anti-FGF2 antibody
# Procedure: (§1) The response was recorded at the end of injection and plotted as a function of the antagonist concentration.
# (§2) Then, wells were overcoated for 2 hours at room temperature with 5% dry milk in coating buffer. […] Then, 100 μl/well of the chromogen substrate 2,29-azinobis(3-ethylbenzthiazolinesulfonic acid) were added. Absorbance values were read at 405 nm in an automatic ELISA reader.
# [2] = target: T1, Human recombinant FGF2 (Fibroblast …); assay: SPR competition: FGF2 0.8 µM over immobilized PTX3 with the peptide in the mobile phase
# Procedure: The response was recorded at the end of injection and plotted as a function of the antagonist concentration. […] The response was recorded at the end of injection and plotted as a function of the antagonist concentration.
# (§3) A BIAcore X apparatus (BIAcore Inc, Piscataway, N.J.) was used.
# [3] = target: T1, Human recombinant FGF2 (Fibroblast …); assay: solid phase assay: peptide-coated wells (200 µg/well), FGF2 80 nM, detection with anti-FGF2 antibody; remark: listed apart in the source
# Procedure: as §2
# [4] = target: T1, Human recombinant FGF2 (Fibroblast …); assay: SPR competition (printed as ID50): competitor with FGF2 0.8 µM in the mobile phase over immobilized PTX3
# Procedure: as §1, §3
# [5] = target: T1, Human recombinant FGF2 (Fibroblast …); assay: SPR competition: competitor with FGF2 0.8 µM in the mobile phase over immobilized PTX3
# From the text: as §3
# T1 sequence (P09038 134-288 limits assumed): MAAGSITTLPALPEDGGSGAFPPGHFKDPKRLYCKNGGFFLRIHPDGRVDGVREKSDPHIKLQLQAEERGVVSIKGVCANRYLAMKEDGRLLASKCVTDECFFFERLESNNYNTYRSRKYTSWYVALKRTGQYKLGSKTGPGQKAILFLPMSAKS
binder,measurement,setting,value
RGELQRLREELGRLAESLAR [synthetic peptide PTX3(82-101)],binding result,[1],no binding (tested: FGF2 80 nM)
RGELQRLREELGRLA [synthetic peptide PTX3(82-96)],binding result,[2],no binding (tested: about 3000 µM)
DNEIDNGLHPTEDPTPCDCGQEHSEWDKLF [synthetic peptide PTX3(31-60)],binding result,[3],no binding (tested: FGF2 80 nM)
DKLFIMLENSQMRERMLLQATDDVLRGEL [synthetic peptide PTX3(57-85)],binding result,[3],no binding (tested: FGF2 80 nM)
RGELQRLREELGRLAESLARPCAPGAPAE (also called parental peptide PTX3(82-110)) [synthetic peptide PTX3(82-110)],IC50,[4],30 µM
same,fold lower potency than free full length PTX3,[5],30 fold
